# Test results published in PMC3170320, “Minimal Antizyme Peptide Fully Functioning in the Binding and Inhibition of Ornithine Decarboxylase and Antizyme Inhibitor” (PLoS ONE, 2011).
# T1: human antizyme inhibitor, wild type (human, UniProt O14977 1-448)
# T1 construct: also called AZI
# T1 sequence (looked up): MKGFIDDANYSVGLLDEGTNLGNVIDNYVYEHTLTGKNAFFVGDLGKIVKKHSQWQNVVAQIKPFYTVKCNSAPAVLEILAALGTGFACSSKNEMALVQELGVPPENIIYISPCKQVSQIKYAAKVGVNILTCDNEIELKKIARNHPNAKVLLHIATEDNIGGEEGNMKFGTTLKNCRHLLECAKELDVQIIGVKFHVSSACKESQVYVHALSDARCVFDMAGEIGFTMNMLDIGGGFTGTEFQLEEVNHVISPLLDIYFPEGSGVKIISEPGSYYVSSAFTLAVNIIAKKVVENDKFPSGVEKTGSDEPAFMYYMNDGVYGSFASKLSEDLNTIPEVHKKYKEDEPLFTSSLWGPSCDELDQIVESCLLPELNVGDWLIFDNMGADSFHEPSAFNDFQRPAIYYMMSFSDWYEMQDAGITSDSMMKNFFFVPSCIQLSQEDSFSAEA
# B1: human antizyme peptide AZ_95-124 (domain or fragment)
# chain: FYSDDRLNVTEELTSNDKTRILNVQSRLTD
# B2: human antizyme peptide AZ_100-176 (domain or fragment)
# chain: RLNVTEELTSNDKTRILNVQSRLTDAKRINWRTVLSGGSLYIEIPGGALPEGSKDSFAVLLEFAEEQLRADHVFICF
# B3: human antizyme peptide AZ_95-228 (domain or fragment)
# chain: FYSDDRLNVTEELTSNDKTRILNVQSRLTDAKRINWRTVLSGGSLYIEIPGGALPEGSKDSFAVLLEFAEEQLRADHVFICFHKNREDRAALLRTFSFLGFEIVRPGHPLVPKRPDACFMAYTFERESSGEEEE
# B4: human antizyme peptide AZ_100-228 (domain or fragment)
# chain: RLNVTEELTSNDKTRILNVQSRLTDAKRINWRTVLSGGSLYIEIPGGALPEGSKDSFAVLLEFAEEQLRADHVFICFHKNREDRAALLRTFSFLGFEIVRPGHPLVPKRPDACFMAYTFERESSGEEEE
# B5: human antizyme peptide AZ_87-124 (domain or fragment)
# chain: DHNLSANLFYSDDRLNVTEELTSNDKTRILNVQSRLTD
# B6: human antizyme peptide AZ_95-135 (domain or fragment)
# chain: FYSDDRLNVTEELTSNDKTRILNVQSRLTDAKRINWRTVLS
# B7: human antizyme peptide AZ_95-176 (domain or fragment)
# chain: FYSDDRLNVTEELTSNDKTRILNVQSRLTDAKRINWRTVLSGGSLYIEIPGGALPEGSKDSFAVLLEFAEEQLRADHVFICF
# B8: human antizyme, wild type (natural protein)
# chain: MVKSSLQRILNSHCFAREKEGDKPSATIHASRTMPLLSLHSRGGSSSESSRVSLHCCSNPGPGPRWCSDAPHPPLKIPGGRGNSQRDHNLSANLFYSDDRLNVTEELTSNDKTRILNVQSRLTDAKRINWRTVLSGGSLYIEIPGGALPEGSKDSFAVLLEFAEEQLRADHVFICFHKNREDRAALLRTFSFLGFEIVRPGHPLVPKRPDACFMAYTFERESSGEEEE
# B9: human ornithine decarboxylase, wild type (enzyme, UniProt P11926 1-461, looked up)
# chain: MNNFGNEEFDCHFLDEGFTAKDILDQKINEVSSSDDKDAFYVADLGDILKKHLRWLKALPRVTPFYAVKCNDSKAIVKTLAATGTGFDCASKTEIQLVQSLGVPPERIIYANPCKQVSQIKYAANNGVQMMTFDSEVELMKVARAHPKAKLVLRIATDDSKAVCRLSVKFGATLRTSRLLLERAKELNIDVVGVSFHVGSGCTDPETFVQAISDARCVFDMGAEVGFSMYLLDIGGGFPGSEDVKLKFEEITGVINPALDKYFPSDSGVRIIAEPGRYYVASAFTLAVNIIAKKIVLKEQTGSDDEDESSEQTFMYYVNDGVYGSFNCILYDHAHVKPLLQKRPKPDEKYYSSSIWGPTCDGLDRIVERCDLPEMHVGDWMLFENMGAYTVAAASTFNGFQRPTIYYVMSGPAWQLMQQFQNPDFPPEVEEQDASTLPVSCAWESGMKRHRAACASASINV
# notes: ornithine decarboxylase (ODC, EC 4.1.1.17), human, wild type; Kd was fitted with an A+B to AB model; also called ODC
# Target: B9
# Assay: AUC; sedimentation velocity, 42,000 rpm, 20°C; ODC fixed at 0.3 mg/mL, AZ or AZ peptide 0.015 to 0.2 mg/mL (molar ratio AZ/ODC 0.12 to 2); 30 mM Tris-HCl pH 7.4, 25 mM NaCl; global fit to the A+B to AB hetero-association model in SEDPHAT
# Settings: both partners purified
row,Binder,Kd [nM]
1,B1,18600 ± 130
2,B2,10800 ± 70
3,B3,1500 ± 10
4,B4,5300 ± 30
5,B5,12700 ± 280
6,B6,10300 ± 70
7,B7,5600 ± 40
8,B8,710 ± 5

# Target: the molecule itself
# Assay: as above
# Settings: not given
row,Binder,binding result
1,B9,binds

# Target: T1, human antizyme inhibitor, wild type
# Assay: AUC; sedimentation velocity, 20°C; AZI fixed at 0.3 mg/mL, AZ or AZ peptide 0.05 to 0.24 mg/mL (molar ratio AZ/AZI 0.4 to 2.4); 30 mM Tris-HCl pH 7.4, 25 mM NaCl; global fit to the A+B to AB hetero-association model in SEDPHAT
# Settings: both partners purified
row,Binder,Kd [nM]
1,B1,280 ± 2
2,B3,24 ± 0.2
3,B4,68 ± 0.7
4,B5,160 ± 1
5,B7,60 ± 4
6,B8,27 ± 0.1

# Target: B9
# Assay: cell-based or functional assay
# Settings: not given
row,Binder,"IC50 of inhibition of ODC enzyme activity (ODC 0.19 µM), without AZI [nM]"
1,B1,650
2,B2,430
3,B3,160
4,B4,210
5,B5,520
6,B6,510
7,B7,200
8,B8,160

# Target: T1, human antizyme inhibitor, wild type
# Assay: cell-based or functional assay
# Settings: not given
row,Binder,IC50 of inhibition of ODC enzyme activity with ODC pre-incubated with equimolar AZI (m1 as the enzyme) [nM]
1,B1,1980
2,B2,1420
3,B3,570
4,B4,620
5,B5,1550
6,B6,1590
7,B7,680
8,B8,500
